# Measured values reported in patent US20220010021A1 (Sanofi, published 2022).
# Changes are numbered by the printed parent chain.
# T1: human beta-Klotho (KLB) (human, UniProt Q86Z14 53-997)
# T1 construct: Bought protein; also called human KLB; β-Klotho
# T1 sequence (looked up): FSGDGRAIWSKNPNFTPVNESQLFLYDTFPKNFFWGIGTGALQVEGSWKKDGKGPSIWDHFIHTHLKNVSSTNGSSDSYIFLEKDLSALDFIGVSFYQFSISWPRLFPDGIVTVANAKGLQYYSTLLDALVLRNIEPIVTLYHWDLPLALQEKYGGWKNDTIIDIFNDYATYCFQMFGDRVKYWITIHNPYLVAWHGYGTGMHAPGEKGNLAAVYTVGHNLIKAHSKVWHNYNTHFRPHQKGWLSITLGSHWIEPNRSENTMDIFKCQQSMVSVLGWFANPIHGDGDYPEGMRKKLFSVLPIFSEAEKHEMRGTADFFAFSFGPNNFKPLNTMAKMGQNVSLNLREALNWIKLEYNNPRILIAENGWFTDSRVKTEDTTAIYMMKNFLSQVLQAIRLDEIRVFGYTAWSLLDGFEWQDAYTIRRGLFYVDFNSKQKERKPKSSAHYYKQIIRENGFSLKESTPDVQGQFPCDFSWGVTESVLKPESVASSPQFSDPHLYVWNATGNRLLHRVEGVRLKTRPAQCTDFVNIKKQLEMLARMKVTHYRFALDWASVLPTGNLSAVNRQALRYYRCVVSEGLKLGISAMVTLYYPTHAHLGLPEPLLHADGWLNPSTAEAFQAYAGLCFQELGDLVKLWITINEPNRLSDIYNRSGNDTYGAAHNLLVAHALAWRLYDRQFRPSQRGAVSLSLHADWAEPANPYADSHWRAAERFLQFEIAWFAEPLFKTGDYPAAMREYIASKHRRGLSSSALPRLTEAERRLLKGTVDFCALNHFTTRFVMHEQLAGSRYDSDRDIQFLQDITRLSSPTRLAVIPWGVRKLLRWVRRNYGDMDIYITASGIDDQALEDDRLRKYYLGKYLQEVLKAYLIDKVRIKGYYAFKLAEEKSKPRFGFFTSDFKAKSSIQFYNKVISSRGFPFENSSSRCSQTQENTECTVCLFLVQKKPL
# B1: 16H7 light chain variant H96W (antibody, IgG4, V domains shown)
# VH: not shown
# VL: SYVLTQPPSVSVAPGQTARITCGGNNIGSESVHWYQQKPGQAPVLVVYDDSDRPSGIPERFSGSNSGNTATLTISRVEAGDEADYYCQVWDGNSDWVVFGGGTKLTVLG
# notes: IgG4 backbone
# B2: 16H7 light chain variant S94E (antibody, IgG4, V domains shown)
# VH: not shown
# VL: B1 VL with S94E, W96H
# notes: IgG4 backbone
# B3: 16H7 light chain variant S51I (antibody, IgG4, V domains shown)
# VH: not shown
# VL: B1 VL with S51I, W96H
# notes: IgG4 backbone
# B4: 16H7 light chain variant N93R (antibody, IgG4, V domains shown)
# VH: not shown
# VL: B1 VL with N93R, W96H
# notes: IgG4 backbone
# B5: 16H7 light chain variant S94N (antibody, IgG4, V domains shown)
# VH: not shown
# VL: B1 VL with S94N, W96H
# notes: IgG4 backbone
# B6: 16H7 light chain variant S94G (antibody, IgG4, V domains shown)
# VH: not shown
# VL: B1 VL with S94G, W96H
# notes: IgG4 backbone
# B7: 16H7 light chain variant H96Y (antibody, IgG4, V domains shown)
# VH: not shown
# VL: B1 VL with W96Y
# notes: IgG4 backbone
# B8: 16H7 light chain variant N93F (antibody, IgG4, V domains shown)
# VH: not shown
# VL: B1 VL with N93F, W96H
# notes: IgG4 backbone
# B9: 16H7 light chain variant N93S (antibody, IgG4, V domains shown)
# VH: not shown
# VL: B1 VL with N93S, W96H
# notes: IgG4 backbone
# B10: 16H7 light chain variant N93Y (antibody, IgG4, V domains shown)
# VH: not shown
# VL: B1 VL with N93Y, W96H
# notes: IgG4 backbone
# B11: 16H7 light chain variant S51T (antibody, IgG4, V domains shown)
# VH: not shown
# VL: B1 VL with S51T, W96H
# notes: IgG4 backbone
# B12: 16H7 light chain variant N93C (antibody, IgG4, V domains shown)
# VH: not shown
# VL: B1 VL with N93C, W96H
# notes: IgG4 backbone
# B13: 16H7 light chain variant N93T (antibody, IgG4, V domains shown)
# VH: not shown
# VL: B1 VL with N93T, W96H
# notes: IgG4 backbone
# B14: 16H7 light chain variant S94M (antibody, IgG4, V domains shown)
# VH: not shown
# VL: B1 VL with S94M, W96H
# notes: IgG4 backbone
# B15: 16H7 light chain variant N93V (antibody, IgG4, V domains shown)
# VH: not shown
# VL: B1 VL with N93V, W96H
# notes: IgG4 backbone
# B16: 16H7 light chain variant N93A (antibody, IgG4, V domains shown)
# VH: not shown
# VL: B1 VL with N93A, W96H
# notes: IgG4 backbone
# B17: 16H7 light chain variant S94F (antibody, IgG4, V domains shown)
# VH: not shown
# VL: B1 VL with S94F, W96H
# notes: IgG4 backbone
# B18: 16H7 light chain variant S94R (antibody, IgG4, V domains shown)
# VH: not shown
# VL: B1 VL with S94R, W96H
# notes: IgG4 backbone
# B19: 16H7 light chain variant S94A (antibody, IgG4, V domains shown)
# VH: not shown
# VL: B1 VL with S94A, W96H
# notes: IgG4 backbone
# B20: 16H7 light chain variant N93D (antibody, IgG4, V domains shown)
# VH: not shown
# VL: B1 VL with N93D, W96H
# notes: IgG4 backbone
# B21: 16H7 light chain variant S94C (antibody, IgG4, V domains shown)
# VH: not shown
# VL: B1 VL with S94C, W96H
# notes: IgG4 backbone
# B22: 16H7 light chain variant S51N (antibody, IgG4, V domains shown)
# VH: not shown
# VL: B1 VL with S51N, W96H
# notes: IgG4 backbone
# B23: 16H7 light chain variant S94I (antibody, IgG4, V domains shown)
# VH: not shown
# VL: B1 VL with S94I, W96H
# notes: IgG4 backbone
# B24: 16H7 light chain variant S51R (antibody, IgG4, V domains shown)
# VH: not shown
# VL: B1 VL with S51R, W96H
# notes: IgG4 backbone
# B25: 16H7 light chain variant S31N (antibody, IgG4, V domains shown)
# VH: not shown
# VL: B1 VL with S31N, W96H
# notes: IgG4 backbone
# B26: 16H7 light chain variant S94L (antibody, IgG4, V domains shown)
# VH: not shown
# VL: B1 VL with S94L, W96H
# notes: IgG4 backbone
# B27: 16H7 light chain variant S31H (antibody, IgG4, V domains shown)
# VH: not shown
# VL: B1 VL with S31H, W96H
# notes: IgG4 backbone
# B28: 16H7 light chain variant S51L (antibody, IgG4, V domains shown)
# VH: not shown
# VL: B1 VL with S51L, W96H
# notes: IgG4 backbone
# B29: 16H7 light chain variant S51Q (antibody, IgG4, V domains shown)
# VH: not shown
# VL: B1 VL with S51Q, W96H
# notes: IgG4 backbone
# B30: 16H7 light chain variant S94D (antibody, IgG4, V domains shown)
# VH: not shown
# VL: B1 VL with S94D, W96H
# notes: IgG4 backbone
# Key:
# [1] = molecular target: T1, human beta-Klotho (KLB); assay: BLI off-rate screening (Octet), crude supernatant;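 also: supernatants tested at 25 µg/mL, dissociation from biosensors recorded in D-PBS with 0.1% BSA over 1800 s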
# [2] = molecular target: cell surface receptor composed of FGFR1c and co-receptor beta-Klotho (KLB) (human, UniProt P11362 22-822; Q86Z14 1-1044); assay: cell-based or functional assay; as to Mean E max, Luciferase reporter gene assay: reference of the scale not given here
# cell surface receptor composed of FGFR1c and co-receptor beta-Klotho (KLB), sequence (P11362 22-822, chain 1 of 2): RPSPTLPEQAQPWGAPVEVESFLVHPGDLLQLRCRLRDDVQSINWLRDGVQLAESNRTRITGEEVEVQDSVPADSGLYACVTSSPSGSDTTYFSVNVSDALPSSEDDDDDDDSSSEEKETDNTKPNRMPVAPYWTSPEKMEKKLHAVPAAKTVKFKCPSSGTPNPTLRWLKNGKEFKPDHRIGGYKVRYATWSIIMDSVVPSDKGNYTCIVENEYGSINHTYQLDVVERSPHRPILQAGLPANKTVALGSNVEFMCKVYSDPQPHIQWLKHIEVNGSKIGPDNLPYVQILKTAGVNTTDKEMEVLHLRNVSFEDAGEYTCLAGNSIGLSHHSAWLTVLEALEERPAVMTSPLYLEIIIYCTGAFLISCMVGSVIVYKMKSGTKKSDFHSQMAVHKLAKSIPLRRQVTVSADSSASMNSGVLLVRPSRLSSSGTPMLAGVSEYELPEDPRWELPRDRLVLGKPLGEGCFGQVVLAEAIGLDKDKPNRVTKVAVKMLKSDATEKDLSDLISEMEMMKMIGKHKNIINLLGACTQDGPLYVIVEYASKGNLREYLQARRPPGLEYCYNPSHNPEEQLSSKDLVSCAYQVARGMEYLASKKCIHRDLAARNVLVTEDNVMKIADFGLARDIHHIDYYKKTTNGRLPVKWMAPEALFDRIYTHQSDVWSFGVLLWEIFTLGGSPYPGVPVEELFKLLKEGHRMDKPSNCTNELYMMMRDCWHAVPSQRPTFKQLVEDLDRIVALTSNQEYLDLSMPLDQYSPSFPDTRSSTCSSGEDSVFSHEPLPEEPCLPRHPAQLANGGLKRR
# cell surface receptor composed of FGFR1c and co-receptor beta-Klotho (KLB), sequence (Q86Z14 whole entry, chain 2 of 2): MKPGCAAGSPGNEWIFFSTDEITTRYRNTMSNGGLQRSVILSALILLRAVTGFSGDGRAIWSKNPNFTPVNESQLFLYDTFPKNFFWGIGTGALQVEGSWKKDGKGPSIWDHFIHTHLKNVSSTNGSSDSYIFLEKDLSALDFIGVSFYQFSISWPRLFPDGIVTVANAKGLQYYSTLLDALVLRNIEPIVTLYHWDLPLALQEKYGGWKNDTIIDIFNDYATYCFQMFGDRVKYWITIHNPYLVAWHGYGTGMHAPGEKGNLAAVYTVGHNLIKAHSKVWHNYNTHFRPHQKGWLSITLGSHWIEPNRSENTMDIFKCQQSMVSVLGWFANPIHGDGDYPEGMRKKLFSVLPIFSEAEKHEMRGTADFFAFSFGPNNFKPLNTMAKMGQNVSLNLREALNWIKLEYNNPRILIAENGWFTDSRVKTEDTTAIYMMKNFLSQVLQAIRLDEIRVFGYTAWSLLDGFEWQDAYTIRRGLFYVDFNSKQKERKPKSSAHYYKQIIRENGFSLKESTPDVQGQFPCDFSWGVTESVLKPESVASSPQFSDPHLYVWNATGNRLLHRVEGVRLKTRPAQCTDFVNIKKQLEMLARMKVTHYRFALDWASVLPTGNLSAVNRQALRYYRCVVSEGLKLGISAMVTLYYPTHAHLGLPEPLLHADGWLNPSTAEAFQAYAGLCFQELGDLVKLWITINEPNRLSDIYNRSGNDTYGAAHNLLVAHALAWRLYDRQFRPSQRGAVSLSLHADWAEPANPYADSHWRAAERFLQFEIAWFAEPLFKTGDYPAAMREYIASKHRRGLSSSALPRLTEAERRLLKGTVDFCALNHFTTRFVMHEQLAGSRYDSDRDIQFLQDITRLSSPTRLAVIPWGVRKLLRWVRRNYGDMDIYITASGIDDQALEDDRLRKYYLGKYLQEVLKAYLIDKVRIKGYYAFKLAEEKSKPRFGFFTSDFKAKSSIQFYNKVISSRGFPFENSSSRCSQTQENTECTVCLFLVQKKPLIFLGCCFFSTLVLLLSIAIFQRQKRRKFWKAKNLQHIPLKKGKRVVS
Binder,koff [1],"Mean E max, Luciferase reporter gene assay [2]","Mean EC50, Luciferase reporter gene assay [2]"
B1,0.00012 s⁻¹,103%,0.155 nM
B2,1.4e-05 s⁻¹,100%,0.122 nM
B3,5e-05 s⁻¹,102%,0.097 nM
B4,5e-05 s⁻¹,100%,0.186 nM
B5,3.3e-05 s⁻¹,103%,0.133 nM
B6,6.8e-05 s⁻¹,100%,0.146 nM
B7,6.9e-05 s⁻¹,103%,0.134 nM
B8,2.2e-06 s⁻¹,100%,0.165 nM
B9,3.4e-05 s⁻¹,101%,0.105 nM
B10,6.5e-05 s⁻¹,105%,0.108 nM
B11,2.5e-05 s⁻¹,102%,0.121 nM
B12,5.8e-05 s⁻¹,107%,0.148 nM
B13,3.1e-05 s⁻¹,103%,0.161 nM
B14,1.2e-05 s⁻¹,101%,0.117 nM
B15,4e-05 s⁻¹,108%,0.139 nM
B16,7.5e-06 s⁻¹,101%,0.108 nM
B17,1e-07 s⁻¹,100%,0.132 nM
B18,5.7e-05 s⁻¹,104%,0.123 nM
B19,4.6e-05 s⁻¹,99%,0.107 nM
B20,3.8e-05 s⁻¹,108%,0.123 nM
B21,1e-07 s⁻¹,99%,0.138 nM
B22,5.3e-05 s⁻¹,100%,0.113 nM
B23,4.3e-05 s⁻¹,106%,0.126 nM
B24,0.00012 s⁻¹,98%,0.103 nM
B25,7.6e-05 s⁻¹,99%,0.124 nM
B26,4.4e-05 s⁻¹,103%,0.169 nM
B27,4.5e-05 s⁻¹,110%,0.158 nM
B28,9.6e-05 s⁻¹,97%,0.099 nM
B29,6.5e-05 s⁻¹,107%,0.115 nM
B30,3.4e-05 s⁻¹,103%,0.122 nM
